Results from patent US6043211A, “Method for inhibiting the activity of a platelet-derived growth factor receptor binding protein” (The Regents of the University of California, priority 1995, dated 2000).
Entries after “also recorded” stand apart in the source; their conditions may differ. Square brackets hold non-standard residues; d marks the D form. Ends that are not written are not given here. Peptide text beside a SMILES is read from it. pY = N[C@@H](Cc1ccc(OP(=O)(O)O)cc1)C(=O)O

Assays:
[1] = target: T1, 85 kD protein association with type B PDGF receptor (Mus musculus, UniProt P26450); assay: In vitro association of 85 kD phosphoprotein with immobilized baculovirus-expressed PDGF receptor (in vitro kinase assay); assay type: binding; details: peptides (50 μM) preincubated with unstimulated 3T3 lysate, FIG. 4a
T1 construct: Cytoplasmic cell lysates from density-arrested BALB/c 3T3 cells were mixed with the immobilized receptor; endogenous in cells; host or cells: BALB/c 3T3 cell lysate (85 kD protein); receptor made in Sf9 insect cells with recombinant baculovirus
T1 sequence (P26450 whole entry): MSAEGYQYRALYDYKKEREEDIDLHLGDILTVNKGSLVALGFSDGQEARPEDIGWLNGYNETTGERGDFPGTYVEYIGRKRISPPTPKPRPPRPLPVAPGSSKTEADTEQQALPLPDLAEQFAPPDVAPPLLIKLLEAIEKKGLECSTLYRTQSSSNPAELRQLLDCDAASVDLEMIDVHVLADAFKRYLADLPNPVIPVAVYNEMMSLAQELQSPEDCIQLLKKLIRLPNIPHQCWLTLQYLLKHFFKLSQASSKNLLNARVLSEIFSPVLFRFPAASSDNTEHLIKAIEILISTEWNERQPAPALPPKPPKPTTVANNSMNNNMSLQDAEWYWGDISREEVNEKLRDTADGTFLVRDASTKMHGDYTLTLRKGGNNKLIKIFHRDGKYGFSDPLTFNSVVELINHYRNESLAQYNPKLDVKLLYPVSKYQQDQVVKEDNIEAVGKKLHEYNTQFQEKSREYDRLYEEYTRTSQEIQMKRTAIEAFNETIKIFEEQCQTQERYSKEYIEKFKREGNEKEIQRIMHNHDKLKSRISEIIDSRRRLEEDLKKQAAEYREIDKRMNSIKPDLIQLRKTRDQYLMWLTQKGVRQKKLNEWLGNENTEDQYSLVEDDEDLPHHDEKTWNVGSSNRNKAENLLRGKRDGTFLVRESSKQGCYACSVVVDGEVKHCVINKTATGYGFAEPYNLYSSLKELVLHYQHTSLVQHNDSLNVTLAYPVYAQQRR
T1 sequence (P42337 whole entry partner): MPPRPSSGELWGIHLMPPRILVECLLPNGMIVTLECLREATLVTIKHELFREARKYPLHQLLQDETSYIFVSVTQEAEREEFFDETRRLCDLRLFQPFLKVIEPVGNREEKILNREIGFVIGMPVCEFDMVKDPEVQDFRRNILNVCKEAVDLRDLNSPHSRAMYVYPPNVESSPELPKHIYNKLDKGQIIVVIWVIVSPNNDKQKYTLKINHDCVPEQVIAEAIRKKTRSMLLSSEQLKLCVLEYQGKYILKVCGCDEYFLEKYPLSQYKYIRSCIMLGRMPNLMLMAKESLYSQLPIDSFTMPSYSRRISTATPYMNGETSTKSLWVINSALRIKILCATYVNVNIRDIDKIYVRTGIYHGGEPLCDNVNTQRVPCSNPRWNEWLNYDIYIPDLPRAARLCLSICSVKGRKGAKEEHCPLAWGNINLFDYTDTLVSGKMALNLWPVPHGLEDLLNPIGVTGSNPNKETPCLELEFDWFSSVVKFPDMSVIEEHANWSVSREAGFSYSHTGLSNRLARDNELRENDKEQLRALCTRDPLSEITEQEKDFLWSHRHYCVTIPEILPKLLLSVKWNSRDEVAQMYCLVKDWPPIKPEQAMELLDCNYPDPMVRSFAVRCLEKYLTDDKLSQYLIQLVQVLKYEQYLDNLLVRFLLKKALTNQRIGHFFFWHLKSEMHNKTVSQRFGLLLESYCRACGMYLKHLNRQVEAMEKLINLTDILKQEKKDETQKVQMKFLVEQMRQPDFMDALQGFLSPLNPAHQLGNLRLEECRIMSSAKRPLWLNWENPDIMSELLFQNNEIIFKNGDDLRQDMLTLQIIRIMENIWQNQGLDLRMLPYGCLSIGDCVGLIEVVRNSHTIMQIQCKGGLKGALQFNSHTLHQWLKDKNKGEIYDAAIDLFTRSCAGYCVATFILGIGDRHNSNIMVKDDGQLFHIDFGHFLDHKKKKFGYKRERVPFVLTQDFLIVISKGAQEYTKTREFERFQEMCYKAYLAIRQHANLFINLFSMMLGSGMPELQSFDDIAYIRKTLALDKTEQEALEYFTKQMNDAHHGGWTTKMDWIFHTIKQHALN
From the text: In in vitro experiments, the type B PDGF receptor was expressed in an insect cell expression system, partially purified, and immobilized using anti-receptor antibodies and protein A Sepharose. The receptor was allowed to autophosphorylate in vitro, so that it would be in a conformation that mimicked the ligand-activated state of the receptor. Cytoplasmic cell lysates from density-arrested BALB/c 3T3 cells were mixed with the immobilized receptor and the complexes were washed extensively. […] The receptor-associated phosphoproteins were detected by an in vitro kinase assay using ^32 P-ATP.
To determine the ability of a series of synthetic peptides derived from this sequence to block the interaction between the receptor and the 85 kD/PI3 kinase activity, 3T3 lysates were incubated with the different peptides prior to mixing with immobilized receptor. […] The other lanes show the proteins that associated with the receptor in the presence of derivatives of the Y719 peptide.
Infected cells were washed twice with cold PBS and lysed in 1 ml of lysis buffer (1% NP-40, 20 mM Tris (pH 8.0), 173 mM NaCl, 10% glycerol, 2 mM EDTA, 1 mM phenylmethylsulfonylfluoride (PMSF), aprotinin (0.15 U/ml), 20 μM leupeptin, 1 mM sodium orthovanadate) at 4° C. for 20 min with rocking. In most experiments (except where indicated in the legend of FIG. 3) the immunoprecipitated receptor was autophosphorylated in vitro by incubating the immune complexes in a buffer containing 20 mM Tris (pH 7.5), 20 mM MnCl, 100 μM ATP for 15 min at 25° C. Lysates were cleared of insoluble material by centrifugation at 13,000× g for 10 min. Lysates were incubated with receptor antibodies (1:500 dilution) for 4 h at 4° C. Receptor-antibody complexes were precipitated using Protein-A sepharose (Sigma) and washed consecutively with RIPA buffer (lysis buffer with 0.1% SDS), wash buffer 1 [0.5% NP-40, 0.5 M LiCl, 50 mM Tris (pH 7.4)] and with 10 mM Tris (pH 7.4). The PI3 kinase association assay was performed by incubating the immobilized receptor with BALB c/3T3 cell lysates for 3 hours at 4° C. The immune complexes were consecutively washed with cold PBS; 0.5% NP-40, 0.5 M LiCl and 51 50 mM Tris (pH 7.4).

[2] = target: T2, PI3 kinase association with type B PDGF receptor (Mus musculus, UniProt P26450); assay: In vitro association of PI3 kinase activity with immobilized baculovirus-expressed PDGF receptor; assay type: binding; details: for Blocking of association of PI3 kinase activity with the receptor: peptides (50 μM) preincubated with unstimulated 3T3 lysate, FIG. 4b
T2 construct: Cytoplasmic cell lysates from density-arrested BALB/c 3T3 cells were mixed with the immobilized receptor; endogenous in cells; host or cells: BALB/c 3T3 cell lysate (85 kD protein); receptor made in Sf9 insect cells with recombinant baculovirus
T2 sequence (P26450 whole entry): as the sequence (P26450 whole entry) above
T2 sequence (P42337 whole entry partner): as the sequence (P42337 whole entry partner) above
From the text: An in vitro system was used to study the interaction of PDGF receptors and PI3 kinase. […] These phosphoproteins include the 85 kDa protein and a 110 kDa protein that have recently been correlated with PI3 kinase activity. In in vitro experiments, the type B PDGF receptor was expressed in an insect cell expression system, partially purified, and immobilized using anti-receptor antibodies and protein A Sepharose. The receptor was allowed to autophosphorylate in vitro, so that it would be in a conformation that mimicked the ligand-activated state of the receptor. Cytoplasmic cell lysates from density-arrested BALB/c 3T3 cells were mixed with the immobilized receptor and the complexes were washed extensively. PI3 kinase activity was found in the complex of proteins associated with the receptor (FIG. 1d). The receptor-associated phosphoproteins were detected by an in vitro kinase assay using ^32 P-ATP. At least four receptor-associated proteins with apparent molecular weights of 140 kD, 120/110 kD (sometimes a doublet), 85 kD and 74 kD were radiolabeled (the bands at 160 kD and 150 kD are the baculovirus-expressed receptor and its precursor, respectively). The 140 kD band has been previously identified as […] and the band at 74 kD includes the raf-1 kinase and probably another molecule as well. The 85 kD protein co-migrated with the 85 kD band, previously considered to be PI3 kinase, in anti-phosphotyrosine immunoprecipitates of cell lysates prepared from PDGF-stimulated cells. The association of 85 and 110 kD proteins with the baculovirus-expressed receptor was also observed by silver stain analysis.
To determine the ability of a series of synthetic peptides derived from this sequence to block the interaction between the receptor and the 85 kD/PI3 kinase activity, 3T3 lysates were incubated with the different peptides prior to mixing with immobilized receptor. […] The arrow indicates the position of the 85 kD protein that co-purified with the PI3 kinase activity. […]

[3] = target: T3, 85 kD protein (Mus musculus, UniProt P26450); assay: Receptor blot: 32P-labeled PDGF receptor probe binding to immobilized 85 kD protein; details: 2.5 μM peptide, FIG. 7
T3 construct: Cytoplasmic cell lysates from density-arrested BALB/c 3T3 cells were mixed with the immobilized receptor; endogenous in cells; host or cells: BALB/c 3T3 cell lysate (85 kD protein); receptor made in Sf9 insect cells with recombinant baculovirus
T3 sequence (P26450 whole entry): as the sequence (P26450 whole entry) above
T3 sequence (P42337 whole entry partner): as the sequence (P42337 whole entry partner) above
From the text: FIG. 7 illustrates the association of soluble radiolabeled receptor with immobilized 85 kD protein ("receptor blot"). Baculovirus-expressed PDGF receptors were immunoprecipitated using receptor antibodies and the receptor was ^32 P-labeled in vitro by autophosphorylation. The solubilized radiolabeled receptor was used to probe nitrocellulose filters containing SDS-polyacrylamide gel-fractionated lysates from control (lanes 1, 3, 4 and 5) or PDGF stimulated (lane 2) cells. In the peptide competition experiments (lane 3, 4, and 5) the peptides were added to the nitrocellulose paper along with the radiolabeled receptor probe. The arrow indicates the position of the 85 kD protein.
To determine the nature of the interaction of the receptor with the 85 kD protein, a modification of Western blotting methodology was used. PDGF receptor from Sf9 cells infected with PDGF receptor baculovirus was immuno precipitated with receptor antibodies, labeled with ^32 P in vitro, and used as a probe to bind proteins from 3T3 cell lysates that had been separated electrophoretically and transferred to nitrocellulose. The radiolabeled PDGF receptor bound directly to an 85 kDa protein in unstimulated 3T3 cell lysate (FIG. 7, lane 1). […] The direct binding interaction appears to involve the 20 amino acid segment in the kinase insert region containing tyrosine 719, and tyrosine phosphorylation of this segment appears to be necessary for the interaction.
Cell lysate proteins transferred to nitrocellulose membranes were analyzed for their ability to bind directly to the PDGF receptor by probing the nitrocellulose membrane with ^32 P-labeled PDGF receptor. To prepare the radiolabeled receptor probe, baculovirus-expressed receptor was immunoprecipitated from 10^6 Sf9 cells. The immune complexes were washed and labeled by autophosphorylation as described above. Labeled receptor was solubilized from the immunoprecipitates by repeated incubation of the immunoprecipitate in solubilization buffer (0.4% SDS, 100 mM NaCl, 2 mM EDTA, 2 mM β-mercaptoethanol, and 50 mM triethanolamine, pH 7.4) at 100° C. for 2 min. […]

[4] = target: T4, transfected type B human receptor (Homo sapiens, UniProt P09619); assay: Competitive binding of PDGF forms against 125I-PDGF on CHO transfectants (CHO-HR5)
T4 construct: expressed in transfected cells; host or cells: CHO (clone CHO-HR5), plasmid pSVRH5
T4 sequence (P09619 33-1106): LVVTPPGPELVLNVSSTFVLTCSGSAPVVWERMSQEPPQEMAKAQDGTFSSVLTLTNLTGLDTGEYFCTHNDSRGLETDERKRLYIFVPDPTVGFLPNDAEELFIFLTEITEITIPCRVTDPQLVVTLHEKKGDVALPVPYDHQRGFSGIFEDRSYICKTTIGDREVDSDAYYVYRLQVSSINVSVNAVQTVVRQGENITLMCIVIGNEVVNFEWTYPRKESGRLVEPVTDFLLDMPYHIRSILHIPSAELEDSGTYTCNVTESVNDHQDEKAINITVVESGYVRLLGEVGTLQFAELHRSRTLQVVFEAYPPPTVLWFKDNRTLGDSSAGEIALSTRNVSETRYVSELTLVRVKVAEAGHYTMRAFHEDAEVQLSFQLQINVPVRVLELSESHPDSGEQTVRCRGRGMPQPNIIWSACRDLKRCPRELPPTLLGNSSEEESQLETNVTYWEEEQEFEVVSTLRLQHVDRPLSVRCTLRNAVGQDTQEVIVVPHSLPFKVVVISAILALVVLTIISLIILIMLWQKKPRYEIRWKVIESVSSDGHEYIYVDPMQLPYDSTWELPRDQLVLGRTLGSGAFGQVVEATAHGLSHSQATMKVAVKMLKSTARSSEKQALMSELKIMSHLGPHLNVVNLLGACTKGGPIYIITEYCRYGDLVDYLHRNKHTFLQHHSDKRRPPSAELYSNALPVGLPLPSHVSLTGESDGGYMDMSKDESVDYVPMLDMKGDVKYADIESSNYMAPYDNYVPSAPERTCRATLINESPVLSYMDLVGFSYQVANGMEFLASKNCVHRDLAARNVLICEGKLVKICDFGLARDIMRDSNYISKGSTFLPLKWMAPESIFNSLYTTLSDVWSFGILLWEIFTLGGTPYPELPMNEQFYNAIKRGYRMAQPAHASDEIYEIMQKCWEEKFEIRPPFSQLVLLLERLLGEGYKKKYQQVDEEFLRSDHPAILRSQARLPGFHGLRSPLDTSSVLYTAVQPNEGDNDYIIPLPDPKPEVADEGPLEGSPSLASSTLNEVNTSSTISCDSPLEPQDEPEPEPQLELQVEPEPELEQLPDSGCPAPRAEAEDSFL
Description: Binding was carried out at 37° C. for 45 min in whole cell suspension.

[5] = test system: native mouse receptor; assay: Competitive binding of PDGF forms against 125I-PDGF on BALB/c 3T3 cells; details: mouse 3T3 cells, yeast-expressed homodimers
From the text: The ability of the human recombinant AA and BB homodimers to compete for the type B receptor sites and displace ^125 I-labeled PDGF (prepared as described below) was studied. Each homodimer was produced selectively by a yeast expression system and was purified from yeast media that is devoid of other mesenchymal cell growth factors, thus avoiding the artifact of contamination by factors that might be present in mammalian expression systems.
BALB/c 3T3 cells and CHO transfectants (CHO-HR5) were incubated with ^125 I-PDGF in the presence of increasing concentrations of AA or BB. Binding was carried out at 37° C. for 45 min in whole cell suspension. Unbound, radiolabeled PDGF was removed by centrifugation on a Ficoll gradient Non-specific binding, determined by incubating CHO cells with ^125 I-PDGF, accounted for 25 percent of the bound radioactivity.

[6] = target: T5, type B receptor tyrosine kinase (Homo sapiens, UniProt P09619); assay: Activation of PDGF receptor tyrosine kinase (autophosphorylation, anti-phosphotyrosine Western blot) in CHO-HR5; assay type: cell-based; details: transfected human receptor
T5 construct: expressed in transfected cells; host or cells: CHO (clone CHO-HR5), plasmid pSVRH5
T5 sequence (P09619 33-1106): as above
From the text: Following polyacrylamide-SDS electrophoresis, the phosphorylated receptor was identified by Western blot using an anti-phosphotyrosine antibody.

Compound	Blocking of binding of the 85 kD phosphoprotein to the receptor [1]	Effect on association of radiolabeled receptor with immobilized 85 kD protein (receptor blot) [3]	further results
CC[C@H](C)[C@H](NC(=O)[C@H](CO)NC(=O)[C@H](CCC(=O)O)NC(=O)[C@H](CC(=O)O)NC(=O)[C@H](CCCCN)NC(=O)[C@H](CO)NC(=O)[C@H](CCSC)NC(=O)[C@H](CC(=O)O)NC(=O)[C@H](CCSC)NC(=O)[C@H](Cc1ccc(OP(=O)(O)O)cc1)NC(=O)CNC(=O)CN)C(=O)N[C@@H](CC(=O)O)C(=O)O [Y708P short]	had blocking activity	–	–
CC[C@H](C)[C@H](NC(=O)[C@H](CO)NC(=O)[C@H](CCC(=O)O)NC(=O)[C@H](CC(=O)O)NC(=O)[C@H](CCCCN)NC(=O)[C@H](CO)NC(=O)[C@H](CCSC)NC(=O)[C@H](CC(=O)O)NC(=O)[C@H](CCSC)NC(=O)[C@H](Cc1ccc(OP(=O)(O)O)cc1)NC(=O)CNC(=O)CN)C(=O)N[C@@H](CC(=O)O)C(=O)N[C@@H](Cc1ccc(OP(=O)(O)O)cc1)C(=O)N[C@H](C(=O)N1CCC[C@H]1C(=O)N[C@@H](CCSC)C(=O)N[C@@H](CC(C)C)C(=O)N[C@@H](CC(=O)O)C(=O)N[C@@H](CCSC)C(=O)O)C(C)C [Y708P/Y719P]	blocked binding of the 85 kD protein	–	–
CC[C@H](C)[C@H](NC(=O)[C@H](CO)NC(=O)[C@H](CCC(=O)O)NC(=O)[C@H](CC(=O)O)NC(=O)[C@H](CCCCN)NC(=O)[C@H](CO)NC(=O)[C@H](CCSC)NC(=O)[C@H](CC(=O)O)NC(=O)[C@H](CCSC)NC(=O)[C@H](Cc1ccc(O)cc1)NC(=O)CNC(=O)CN)C(=O)N[C@@H](CC(=O)O)C(=O)N[C@@H](Cc1ccc(OP(=O)(O)O)cc1)C(=O)N[C@H](C(=O)N1CCC[C@H]1C(=O)N[C@@H](CCSC)C(=O)N[C@@H](CC(C)C)C(=O)N[C@@H](CC(=O)O)C(=O)N[C@@H](CCSC)C(=O)O)C(C)C [Y719P]	blocked the binding of the 85 kD phosphoprotein	failed to associate with the 85 kD protein	IC50 [2]: ~5 µM
CC[C@H](C)[C@H](NC(=O)[C@H](CO)NC(=O)[C@H](CCC(=O)O)NC(=O)[C@H](CC(=O)O)NC(=O)[C@H](CCCCN)NC(=O)[C@H](CO)NC(=O)[C@H](CCSC)NC(=O)[C@H](CC(=O)O)NC(=O)[C@H](CCSC)NC(=O)[C@H](Cc1ccc(O)cc1)NC(=O)CNC(=O)CN)C(=O)N[C@@H](CC(=O)O)C(=O)N[C@@H](Cc1ccc(O)cc1)C(=O)N[C@H](C(=O)N1CCC[C@H]1C(=O)N[C@@H](CCSC)C(=O)N[C@@H](CC(C)C)C(=O)N[C@@H](CC(=O)O)C(=O)N[C@@H](CCSC)C(=O)O)C(C)C [Y719] (H-GGYMDMSKDESIDYVPMLDM-OH)	No change in the pattern of receptor-associated protein	did not interfere with the association of the receptor with the 85 kD protein	–
AA: Human recombinant AA homodimer of PDGF produced by a yeast expression system	–	–	Relative affinity for the transfected type B human receptor ([4]; CHO-HR5, yeast-expressed homodimers): lower affinity than the BB form; Competition for 125I-PDGF labeled sites ([4]; human receptor transfectants, 37° C., 45 min): competed; Relative affinity for the native mouse receptor [5]: lower affinity than the BB form; Activation of type B receptor tyrosine kinase (autophosphorylation) [6]: stimulated autophosphorylation of the transfected human receptor; also recorded: activates the receptor tyrosine kinase of the type B receptor
AB: Human partially purified platelet-derived AB PDGF heterodimer	–	–	Activation of type B receptor tyrosine kinase (autophosphorylation) [6]: stimulated autophosphorylation of the transfected human receptor
MDMSKDESIDYVPMLDM (MDMSKDESID[pY]VPMLDM) [Y719P short]	blocked binding of the 85 kD protein; also recorded: had blocking activity	–	Blocking of association of PI3 kinase activity with the receptor [2]: inhibited the association of PI3 kinase activity with the receptor
MMDIKVPMDEYMSDYSDLGG (MMDIKVPMDE[pY]MSDYSDLGG; not fully specified; printed as MMDIKVPMDE*YMSDYSDLGG) [Y719P scrambled]	failed to block binding of the 85 kD protein	did not interfere with the association of the receptor with the 85 kD protein	Blocking of association of PI3 kinase activity with the receptor [2]: did not prevent the association of PI3 kinase activity with the receptor
